Here are results for one substance from paper PMC3836734.

In this assay the target is Fc neonatal receptor (FcRn) (human (endogenous in HEC-1A)) (UniProt P55899).
Sequence of UniProt P55899 (P55899 whole entry, looked up, tested part not stated): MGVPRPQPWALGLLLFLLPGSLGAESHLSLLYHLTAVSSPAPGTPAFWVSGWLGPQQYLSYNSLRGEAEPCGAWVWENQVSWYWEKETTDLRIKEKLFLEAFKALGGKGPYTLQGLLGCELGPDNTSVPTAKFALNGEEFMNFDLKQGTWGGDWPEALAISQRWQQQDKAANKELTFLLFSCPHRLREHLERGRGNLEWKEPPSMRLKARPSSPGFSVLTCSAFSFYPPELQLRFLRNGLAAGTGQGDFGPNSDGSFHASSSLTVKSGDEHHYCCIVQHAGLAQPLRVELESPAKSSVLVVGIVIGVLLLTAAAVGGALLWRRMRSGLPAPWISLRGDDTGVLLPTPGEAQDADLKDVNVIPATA

In turn, mAb VRC01, IgG1 (antibody) came in with a transcytosis of IgG alone (50 µg/ml) across HEC-1A cells, IgG in subnatant fluid by ELISA after 12 hours; about 0.4% at pH 7.4 of 1.3%.
